Measurements: article PMC5433940 (Chembiochem : a European journal of chemical biology, 2016)
Ends that are not written are not given here.

T1: p32 protein (Homo sapiens, UniProt Q07021)
T1 sequence (Q07021 74-282): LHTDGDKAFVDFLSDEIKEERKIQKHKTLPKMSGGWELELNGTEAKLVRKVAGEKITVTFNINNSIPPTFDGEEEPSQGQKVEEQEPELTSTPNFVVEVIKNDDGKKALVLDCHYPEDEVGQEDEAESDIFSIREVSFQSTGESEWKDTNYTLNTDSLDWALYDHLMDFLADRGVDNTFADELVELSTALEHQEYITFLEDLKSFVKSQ

T2: recombinant 6x-His-tagged p32 protein (p32/gC1qR) (UniProt Q07021 74-282)
T2 sequence (looked up): T1 sequence (Q07021 74-282)


What was measured:
p32 protein = biological target: T1, p32 protein; assay: Binding of peptide-displaying T7 phage clones to immobilized p32 protein; conditions: peptide displayed on T7 phage; compared to LyP-1 phage
[1] = biological target: recombinant 6x-His-tagged p32 protein (p32/gC1qR) (UniProt Q07021); assay: AUC
[2] = biological target: T2, recombinant 6x-His-tagged p32 protein …; assay: fluorescence polarisation

| Molecule | phage binding to p32 (p32 protein) | also measured |
| --- | --- | --- |
| CTRGSRSKC | greatly improved binding to p32 compared to LyP-1 phage |  |
| recombinant 6x-His-tagged p32 protein (p32/gC1qR) (from UniProt Q07021 74-282) (natural protein; other documents disagree on this pair) |  | stoichiometry N [1]: 3 |
| CKRGNRSMC | greatly improved binding to p32 compared to LyP-1 phage |  |
| CGNKRTRGC (cysteine pairing not given here; also: FAM label, position not given here) [FAM-labeled LyP-1 peptide (CGNKRTRGC)] |  | Kd [2]: > 23 µM |
